Source: the DeepSol protein solubility set

Test: soluble on expression in E. coli; label from the status in PepcDB or PDB records

| Sequence | soluble on expression in E. coli |
| --- | --- |
| AHHHHHHGSDKVYLTWWQVDRAIFALAEKLREYKPDVIVGIARGGLIPAVRLSHILGDIPLKVIDVKFYKGIEERGEKPVITIPIHGDLKDKKVVIVDDVSDTGKTLEVVIEEVKKLGAKEVKVACLAMKPWTSVVPDYYVFRTEKWIVFPWEEFPVIERE | not soluble |
| MSLYPGQFAKTRPDHPAFIMASTGETVSYAELEARSNRLAHLLRNHGLQRLDHYSIFMENNNRYIEACAAGERSGYYYTCVNSYLTPAELAYILTNSESRALITSKAKLDVAREALKDCPNVTLCVVVDGDGESERIVGLAEATKNLPDTPIADESLGTAMLYSSGTTGRPKGILRPLPEQPPSEPLPLFHFLNMLWKYRDGMIYLSPAPLYHSAPQAAVGLTIRDGGTVIIMEHFDPEQYLALIGKHKVTHSQLVPTMFSRMLKLPEEARKTYDLSTLEVAIHAAAPCPPQVKEQMIEWWGPIIHEYYGATEGLGFTACNSAEWLAHRGTVGKVMFGDLHILDDGMKPCPKGTPGQIWFKTATPFEYFNDPKKTQEARSEDGSMSTVGDVGYVDDDGYLHLTDRATFMIISGGVNIYPQECENLLITHPKVADAAVFGVPNEDLGEEVKAVVQPMPGVAAGADLAAELIAFCAQSLSRQKVPRSIDFMDELPRLPTGKLYKRLLRDRYWGNKNSREGHHHHHH | soluble |
| MGSDKIHHHHHHMAKHPLVMALAKVIIAAAWADGELSLDEVNDLKRLLAELGQTGGQFALTADDWAELEIYLYSPVEAAERARLIADLRDLIITPGQQQLVLQAIERLLIADRVLTPVEREVAQEIQRALTQDSQSLLFQIGRAFRLALGIRAGGPNREDLLPEFMRNRIYYALQIRLGQHIDEFGLDRDELHVLTLAGGLLARVAYVDKQVTPAEHDRIVAILKEWWQLDDTQAALVAEVALDESAASLDFFRLTKAFADATTVERRQRFLDALFAVALADGELSGAESAEISRITAAINLPHDSFVAARLRLPRQPGKRL | not soluble |
| MVQRLISANASEIKRMSKEELFQSIKASEGRVILSENVVVHPSVAGDITCAEMSKAYGADMILLNVFDVNQPIVVAAYEGQYTAETCVPNDEVVHRLKELVGLPIGMNVEPVDENLDLASTRVSIEPGRKASAATFKKANELGLDFILLTGNPGTGVTNDLIAKNVALAKKHFDGIIIAGKMHSSGVDEPVVSLKSAEQFIEAGADIVLVPAVGTVWGIDDQQVKEVVDFAHSKGKLVMSAIGTSQESAQPEVIQAIGIRNKILGVDIQHIGDANMGLVGIENIKELSDAIRGKRHTVARMARSINR | not soluble |
| MAKQPTVLWAQRESLVYLTIEVDEAKIEELKGEGNKLHFQGSSKTDKYEATLEFFDEIDPASVKHTGSSTRVVEITVQKKTPAWWPRLLQNKGKVHWLKVDFGKWKDEDEDDEAEDAGAGIGGGMANGFDLNQYMSQMGGAGGADFGGLEDDEEDDDMPDLEDNEEEEGKNGTRA | not soluble |
| MSLEPYAAKAHEGYLRNLMLRYSERHEQLMVNIVTSWYDKALMQALKERLEAAMPEQQMTLLNNVTTRKNTVATGEQEYVISGDGYVTERLGDLDFRISANSFFQTNTRQAETLYDQIIAVGGITPEDTVYDLYCGTGTITLYLARHCKQAIGIEVVESAVKDAEMNAELNGLSNTVFFQADLKNFHAMQEALEPYAKPRIIVTDPPRAGMHPKALDTMLKLQPERIVYVSCNPDNLARDGKEIAARGYRMTSAQPVDMFPQTNHIETVACFERAEGHHHHHH | not soluble |
| MGSDKIHHHHHHMNINQLKTFIVLADCLSVTETSKRLFCTQPAVSIKIRKLEETLNTVLFERINNRLYLTEQGKIFYSYAEQIISTLEMSVEHLHQYDDPNYGKIIIGASHFVGVYLLPQVIAEYRKLSPNVELRLEILSSQQLIQGLENHSIDFIIMSDQIYFDPQKYDVNRFLSDELILIVPPDHVLATYESCHFEQLCDELFIIKPKNSQTRKFLLQQFSKDQISLLKFMEINSLEGIKRCVMNGLGVSIISRFSVENELKMGMLKAVELDSFQFKRGINYIYHKEKCLSSAIGRFIGLLNILK | not soluble |
| SHEVVRDVPAMVVDRSNSTLSREYLRRVDATPEVSIVGHCTDMEEAKEQIRRRNAYGIIYVPEDFSEHLNTGRKAHISLYCDMSGLLYYKSLLIANTLVSLEMNKEIKIARSVGATERQGEIISYPIDYEDVALYNPTV | not soluble |
| MGSDKIHHHHHHMADRMQWANALSTRPSLEAAVTDVVQRAVSTLTAPADLGLVFISSAFASEYSRVLPLLAEQLSVPVMIGCSGGGVIGTAASGQTQELEAEAALSLTLAHLPGVNLQVFHVLGEELPDLDSPPDTWINLIGVPPSPTPHFILLSSAFSSGINDLLQGLDFAYPGSVILGGQASVGGMGGRLALFCNGSLHREGTVGLALSGNIVLEPIVAQGCRPIGEPLQVTKAERNIILELDEKVPLVVLRDLIASLSEKERALAQHSLFVGVAMDEFKLSLQQGDFLIRSILGVDPSGGAIAIGDLVRPGQRLQFHLRDSQASAEELEFLLERYQTKPEFDNSAVGALMFSCVGRGEGLYGKPNFDSELFKRYIQDVPVGGFFCGGEIGPVGGRTFLHGYTSVFGICRELSVED | not soluble |
| MGSDKIHHHHHHMRLAAATGFSFVGLRVIAVTPNERVYDLSPGSPLLAATQQALKETALYVLDTEFLQVNADTTREAWLPALEAAGALGAKTFTIAAGDDNIAPLTDTIGAMVDDARDFGVTPALEPISYRSVHSIPQAAAIARDSGGKVVADTLHMARFGATPEELTDVTDVLGVLQLCDSPLQRPADLDGLVTESRSLRLAPGEGEQNLLTFVNALDSNVPLSVETPNDGEVASRGDAGWINHLYNTTQALLEKIEEAV | not soluble |
| VAYLTEVVVNEVVEAHEVPEVQHALNINSSESLIHIVRTRRLNQHVKIVDEDYFLKSIVSDIGNDVASDSIYDYLEKVLNLNISYSSKSITFEPFDEQAYQLFGDVSVAYSATVRSIVYLENTMPFQYNISKHLA | not soluble |
| MGSDKIHHHHHHMFVEACGRLVLIRKIYGLVKVFMVKKTIRYMRISLMLTNDAIFTTRLQKGGALLDDMRQLVCQWTEAVAKPESQAGEILHKATRSRVADTYRRAFLPRFLKGSPQDAWKLARALEEAHPSIEIIRPFYYWITARAEPILYAYVTEELVEKAKTSDRAVRTEETASWINNTLRSCGRVWSPTVQLKVARGILAALRDFAILEGAVNKRLVHGHLPIETFCLIAFLLNLMGIGARELVEHSDWKLFLLAGPEVERLFFEAHQHGWLHYQAAGRVHRIEFPTNDFKDYIRVIFGTES | not soluble |
| MGSDKIHHHHHHMTQVPPSASPADLLAVLERIATALERQGAPAVPANSLDGADAFVWHAAESWLEPVCRVNRVDIALLQGIERQRQTLYDNTLRFAHGLPANNALLWGARGTGKSSLVKAVHASVNQALTAKGAAPVALVEIHREDIPTLPRLLRILAASGRPCLLFCDDLSFDGNDSSYKSLKAVLEGGIEGRPDTVIFYATSNRRHLLAREMVENEQSTALHAGEAVEEKVSLSDRFGLWLGFHNVDQPTYFDIVDGYARAYGLDIETEDLHREAREWSMARGSRSGRTAWQFIQDLAGRLGKTLE | not soluble |
| MMRKLKTLPPTLRDKNRYIAFEIISDGDFTKDEVKELIWKSSLEVLGETGTAIVKPWLIKFDPNTKTGIVRSDREYVEYLRFALMLVSEFNGKRLIIRTLGVSGTIKRLKRKFLAKYGWK | soluble |
| MAHHHHHHMPTYVGKEAPFFKAEAVFGDNSFGEVNLTQFIGKKYVLLYFYPLDFTFVCPSEIIALDKALDAFHERNVELLGCSVDSKYTHLAWKKTPLAKGGIGNIKHTLLSDITKSISKDYNVLFDDSVSLRAFVLIDMNGIVQHLLVNNLAIGRSVDEILRIIDAIQHHEKYGDVCPANWQKGKVSMKPSEEGVAQYLSTL | not soluble |
| MSKLVYLLLMIFFLNPAWANTHYHQHPVSPLANALRTGTDTNGNALYLCRAKLFNSIQPGKTWAGYGRCNVPYGGKEYVLSQFTIPNQNEFGRYSWEPNVEHALLMGKDTNGNPLFVCQSNFNGSIQPGKTWPGYSHCNISYGGREIITDNYRILSRPTEIIVRTQPPVHRHPSQNRHYHYLEHHHHHH | soluble |
| MVKDLLEERARELGLLFAWAPLDLPQEAEARHRAWLEAGRHGGMAYLEAPERFHPRKRFPWAKSALLLFAPYAYPDPGTPPGGLRVGRVARYAWTRDYHLVLGEALKALEETARGLGLKAKGYVDHGPLPERTLAALSGAGWIGKSGYFLSQAFGVHAFIGVLLTPLEVEAAPLHPSRCGRCARCLSACPTEALLGDGTLDARACVSYLTIEHKGPIPPSLWPGIGDWLFGCDLCGEACPWERFGKVWKALRPEPELAHPDLLDFFRLSGRAFGRKYAGTAFLRAGRARMARNALIVLFNLGLGEALFLEATRDPNPLVRRTALRALHLMGKPLDPFLQDPGLREEALALLGEAPEAVHLLQDGREAPGPEVKEQGA | not soluble |
| MGSDKIHHHHHHMTISAQCNLQKLAFATTLAVTIVLSQGRAIGQVKHGSPIELAKADVSTAVRQDMANEVRIVGSLTPIRRSTLTSRVSSTIIELPVQIGDVVNAGDLLVRFERGALESAVTGRKAEADALSAQTELAEAVLERNTRLGERGAASEATRLAALADVLDLRAQLRSKQAEVSDAERSLSHAEVRAEFGGVIAARSVEEGQTVPLNTQLMTIVELNRLEVDAGVPTSRIPLIRLKQSVELTVEGFPGRTFSGEVARISPTADAGSRAVRVFIAVDNEEGLLRGGMFTIGDLRVDDQKDVIALPAASIRHDADGFFVLKVEAGVLQRRPVGLGRSWSDRDLVQVSGVSEGDVIVTAPLPDLVVNTPVIIEGI | not soluble |
| MVTLILLAGGSGTRASLNLPKQYYRIEEKMVIEYTLENVSRVKGVDNIILVSNPRFMDTALELKESFPKIKDVAKGGRTRNESIYNGFMKVPQKESKILVHDAVRPFTPRWVFERIISLLDERDVITTVNPITGNLIELDNGKVKRIYDRSKFAIGEAPTGYRYGALKKTLEVAVSNGTLNEIPHDIVLAMNAGFDVYVLPCNCFNLKITFKEDIEIARTLIKMLEERE | soluble |
| MTMTQQIKAVVYDFGGVLLSYEGVMEKWVAMSRSLGLPDDAVHSESVGIEFSQWLGPDRSLFLGTLTVDDLEGGLFLQYLKHKYGNKLTDNVVIKPFTECLRGENVKIHKNMQKTVEILHKKGFKTAMLTNNMFLDKEHKETRLPCDLTHFDEVVESCLEHLMKPDARFYHLVEKRLGVKPEEIVFLDDLHENIEAAEKLGWNTILVEDIEKAIHELEGFTKVKLI | not soluble |
| MAQDWNDKIESAQKMLPLIAQLHNNNNVVVSVFGRLLINVTDIDIVKAHRYSRLATETELSPADTLPVLEALHSINVGPASIDLGRLVELHRSKGGDLTQFLTEELSNVIDTRPA | not soluble |
| MGSDKIHHHHHHMTQDLAQFAAERGIKYFMISYTDLFGAQRAKLVPAQAIADMQKDGAGFAGFATWLDLTPAHPDLFAVPDASSVIQLPWKKDVAWVAADCVMDDKPVEQAPRVMLKKLVDEAASMGLRVKTGVEPEFFLISADGKTISDEFDTAEKPCYDQQALMRRYDVIAEICDHMLELGWKPYQNDHEDANGQFEMNWEYDDALKTADKHSFFKFMVKSVAEKHGLRATFMPKPFKGLTGNGCHAHISVWDNDGKVNAFADKAMPFGLSAKGKTFLGGIMKHASALAAVTNPTVNSYKRINAPRTVSGATWAPNTVTWTGNNRTHMVRVPGPGRFELRLPDGAVNPYLLQAIIIAAGLSGLKTNADPGPHYDIDMYREGHTVTDAPKLPLNLLDALRAYEADTELQQALGEEFSAAYLKLKHGEWTSYCSQFTPWEHQTTLDI | not soluble |
